The supplement of paper PMC9112550, “Optimization of the antimicrobial peptide Bac7 by deep mutational scanning” (BMC Biology, 2022)

What follows are sequences tested on Escherichia coli TOP10 (assay: shrunken log2 fold change of peptide-encoding DNA abundance (4.5 h post-induction vs induction); higher = less antimicrobial activity (less host growth inhibition)). Conditions: time post-induction: 4.5 h; library: site-saturation at positions 5, 18, 19, 20.
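Also: peptides expressed intracellularly from a pBAD plasmid library in pooled LB shake-flask culture, induced with 0.3% L-arabinose, DNA abundance read by NGS, three biological replicates, DESeq2 with apeglm shrinkage.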

Sequence	shrunken log2 fold change
RRIRHRPPRLPRPRPRPLYTPRP	-0.57
RRIRHRPPRLPRPRPRPMAWPRP	0.0581
RRIRHRPPRLPRPRPRPMCKPRP	-0.151
RRIRHRPPRLPRPRPRPMCPPRP	-0.0218
RRIRHRPPRLPRPRPRPMCYPRP	0.118
RRIRHRPPRLPRPRPRPMFMPRP	-0.256
RRIRHRPPRLPRPRPRPMGCPRP	-0.000946
RRIRHRPPRLPRPRPRPMHRPRP	0.00128
RRIRHRPPRLPRPRPRPMHYPRP	-0.289
RRIRHRPPRLPRPRPRPMIYPRP	-0.105
RRIRHRPPRLPRPRPRPMLAPRP	-0.144
RRIRHRPPRLPRPRPRPMNSPRP	-0.214
RRIRHRPPRLPRPRPRPMPHPRP	-0.131
RRIRHRPPRLPRPRPRPMPNPRP	-0.0341
RRIRHRPPRLPRPRPRPMPQPRP	0.235
RRIRHRPPRLPRPRPRPMPVPRP	-0.0266
RRIRHRPPRLPRPRPRPMPWPRP	-0.032
RRIRHRPPRLPRPRPRPMRAPRP	0.686
RRIRHRPPRLPRPRPRPMRIPRP	-0.00172
RRIRHRPPRLPRPRPRPMRPPRP	0.36
RRIRHRPPRLPRPRPRPMSAPRP	-0.549
RRIRHRPPRLPRPRPRPMSWPRP	-0.106

Sequence	shrunken log2 fold change
RRIRHRPPRLPRPRPRPMTAPRP	-0.135
RRIRHRPPRLPRPRPRPMTPPRP	0.0337
RRIRHRPPRLPRPRPRPMVHPRP	0.00748
RRIRHRPPRLPRPRPRPMWLPRP	-0.362
RRIRHRPPRLPRPRPRPNAIPRP	0.0158
RRIRHRPPRLPRPRPRPNCPPRP	-0.152
RRIRHRPPRLPRPRPRPNCTPRP	-0.142
RRIRHRPPRLPRPRPRPNDEPRP	-0.0904
RRIRHRPPRLPRPRPRPNDYPRP	-0.56
RRIRHRPPRLPRPRPRPNEDPRP	-0.081
RRIRHRPPRLPRPRPRPNELPRP	0.031
RRIRHRPPRLPRPRPRPNFFPRP	0.307
RRIRHRPPRLPRPRPRPNFLPRP	-0.322
RRIRHRPPRLPRPRPRPNFRPRP	-0.144
RRIRHRPPRLPRPRPRPNHVPRP	-0.0341
RRIRHRPPRLPRPRPRPNHWPRP	-0.594
RRIRHRPPRLPRPRPRPNKWPRP	-0.0964
RRIRHRPPRLPRPRPRPNLVPRP	-0.00912
RRIRHRPPRLPRPRPRPNPAPRP	-0.0505
RRIRHRPPRLPRPRPRPNPPPRP	0.0899
RRIRHRPPRLPRPRPRPNQDPRP	-0.337
RRIRHRPPRLPRPRPRPNQGPRP	-0.479

Sequence	shrunken log2 fold change
RRIRHRPPRLPRPRPRPNQMPRP	-0.0904
RRIRHRPPRLPRPRPRPNSGPRP	-0.194
RRIRHRPPRLPRPRPRPNTDPRP	-0.438
RRIRHRPPRLPRPRPRPNTWPRP	-0.0528
RRIRHRPPRLPRPRPRPNWNPRP	-0.451
RRIRHRPPRLPRPRPRPNWQPRP	-0.0282
RRIRHRPPRLPRPRPRPPAFPRP	0.0237
RRIRHRPPRLPRPRPRPPAMPRP	0.0064
RRIRHRPPRLPRPRPRPPDYPRP	4.26
RRIRHRPPRLPRPRPRPPFDPRP	-0.178
RRIRHRPPRLPRPRPRPPFLPRP	-0.251
RRIRHRPPRLPRPRPRPPFNPRP	-0.256
RRIRHRPPRLPRPRPRPPGNPRP	0.133
RRIRHRPPRLPRPRPRPPHYPRP	0.0175
RRIRHRPPRLPRPRPRPPIFPRP	-0.163
RRIRHRPPRLPRPRPRPPITPRP	-0.346
RRIRHRPPRLPRPRPRPPLDPRP	0.372
RRIRHRPPRLPRPRPRPPLGPRP	0.25
RRIRHRPPRLPRPRPRPPLKPRP	-0.00744
RRIRHRPPRLPRPRPRPPLLPRP	0.152
RRIRHRPPRLPRPRPRPPLMPRP	-0.187
RRIRHRPPRLPRPRPRPPLPPRP	0.476

Sequence	shrunken log2 fold change
RRIRHRPPRLPRPRPRPPMGPRP	0.343
RRIRHRPPRLPRPRPRPPMNPRP	-0.543
RRIRHRPPRLPRPRPRPPNYPRP	-0.0558
RRIRHRPPRLPRPRPRPPQEPRP	-0.0115
RRIRHRPPRLPRPRPRPPRVPRP	0.356
RRIRHRPPRLPRPRPRPPSWPRP	0.393
RRIRHRPPRLPRPRPRPPVWPRP	0.156
RRIRHRPPRLPRPRPRPPWAPRP	0.226
RRIRHRPPRLPRPRPRPPWFPRP	-0.27
RRIRHRPPRLPRPRPRPPWTPRP	-0.131
RRIRHRPPRLPRPRPRPPYIPRP	-0.175
RRIRHRPPRLPRPRPRPQDWPRP	0.0899
RRIRHRPPRLPRPRPRPQIVPRP	-0.238
RRIRHRPPRLPRPRPRPQKHPRP	-0.992
RRIRHRPPRLPRPRPRPQMEPRP	-0.00192
RRIRHRPPRLPRPRPRPQNCPRP	0.0145
RRIRHRPPRLPRPRPRPQQRPRP	0.403
RRIRHRPPRLPRPRPRPQRDPRP	0.000147
RRIRHRPPRLPRPRPRPQRKPRP	-0.191
RRIRHRPPRLPRPRPRPQRLPRP	0.00653
RRIRHRPPRLPRPRPRPQSAPRP	-0.116
RRIRHRPPRLPRPRPRPQVCPRP	-0.0115

Sequence	shrunken log2 fold change
RRIRHRPPRLPRPRPRPQVWPRP	-0.112
RRIRHRPPRLPRPRPRPQWAPRP	-0.018
RRIRHRPPRLPRPRPRPQWGPRP	-0.149
RRIRHRPPRLPRPRPRPQWIPRP	-0.031
RRIRHRPPRLPRPRPRPQWMPRP	0.0263
RRIRHRPPRLPRPRPRPQWYPRP	-0.0605
RRIRHRPPRLPRPRPRPQYLPRP	0.00943
RRIRHRPPRLPRPRPRPRCQPRP	0.219
RRIRHRPPRLPRPRPRPRCVPRP	0.548
RRIRHRPPRLPRPRPRPRDCPRP	-0.0851
RRIRHRPPRLPRPRPRPRDHPRP	0.175
RRIRHRPPRLPRPRPRPRFNPRP	-0.316
RRIRHRPPRLPRPRPRPRGGPRP	0.504
RRIRHRPPRLPRPRPRPRGMPRP	0.207
RRIRHRPPRLPRPRPRPRHCPRP	0.03
RRIRHRPPRLPRPRPRPRHMPRP	-0.0251
RRIRHRPPRLPRPRPRPRIIPRP	-1.44
RRIRHRPPRLPRPRPRPRLLPRP	-0.113
RRIRHRPPRLPRPRPRPRLMPRP	0.121
RRIRHRPPRLPRPRPRPRLTPRP	-0.176
RRIRHRPPRLPRPRPRPRNNPRP	-0.493
